This note sets out measurements from article PMC9884178 (Nature, 2022).

The target in this test is T1, WaaL from Cupriavidus metallidurans (CmWaaL) in MSP1E3D1 nanodiscs, as used for ELISA (Cupriavidus metallidurans CH34).
T1 chain: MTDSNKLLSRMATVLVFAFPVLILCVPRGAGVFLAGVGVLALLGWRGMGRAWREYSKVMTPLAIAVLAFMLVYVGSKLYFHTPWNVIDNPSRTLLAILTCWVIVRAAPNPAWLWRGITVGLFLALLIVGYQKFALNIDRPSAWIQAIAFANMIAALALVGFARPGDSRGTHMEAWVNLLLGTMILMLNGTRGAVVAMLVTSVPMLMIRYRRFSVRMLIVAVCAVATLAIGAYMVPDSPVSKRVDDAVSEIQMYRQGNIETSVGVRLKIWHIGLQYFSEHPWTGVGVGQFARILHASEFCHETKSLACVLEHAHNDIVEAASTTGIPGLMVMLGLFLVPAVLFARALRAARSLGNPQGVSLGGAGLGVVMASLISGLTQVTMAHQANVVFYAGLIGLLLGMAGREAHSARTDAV
Put plainly: ELISA. For orientation: In an ELISA, binding on a coated surface is turned into a signal by an enzyme label.

B1: WaB10 Fab (synthetic antigen binder against CmWaaL) (Fab, V domains shown)
VH: EVQLVESGGGLVQPGGSLRLSCAASGFNVYSSSIHWVRQAPGKGLEWVAYISSYYGSTYYADSVKGRFTISADTSKNTAYLQMNSLRAEDTAVYYCARIMFKWVSPNMAFDYWGQGTLVTVSS
VL: DIQMTQSPSSLSASVGDRVTITCRASQSVSSAVAWYQQKPGKAPKLLIYSASSLYSGVPSRFSGSRSGTDFTLTISSLQPEDFATYYCQQSYYSLVTFGQGTKVEIK
Broadly, the EC50 is the concentration needed to bring the measured effect to its halfway point. In turn, B1 yielded an EC50 of 1.87 nM.
